Measured values published in PMC5525514 (Journal of biomolecular screening, 2011).
Each block holds one molecule with its values, some of them ahead of it.

B1: GST-RGS17 (human RGS17 with an N-terminal glutathione-S-transferase and a C-terminal 6xHis tag) (domain or fragment, UniProt Q9UGC6 61-210, looked up)
chain: MESIQVLEECQNPTAEEVLSWSQNFDKMMKAPAGRNLFREFLRTEYSEENLLFWLACEDLKKEQNKKVIEEKARMIYEDYISILSPKEVSLDSRVREVINRNLLDPNPHMYEDAQLQIYTLMHRDSFPRFLNSQIYKSFVESTAGSSSES

Experiments:
[1] = target: biotinylated 6x-His-tagged Gαo (UniProt P59215 1-354, biotin (EZ-Link Biotin-BMCC, maleimide chemistry, labeled at a 10:1 biotin/protein ratio)); experiment: AlphaScreen or HTRF
[2] = target: B1; experiment: AlphaScreen or HTRF
Gαo–RGS17 interaction = target: T1, Gαo–RGS17 interaction (Homo sapiens, UniProt Q9UGC6); experiment: AlphaScreen competition binding with free Gαo
T1 sequence (Q9UGC6 61-210 limits assumed): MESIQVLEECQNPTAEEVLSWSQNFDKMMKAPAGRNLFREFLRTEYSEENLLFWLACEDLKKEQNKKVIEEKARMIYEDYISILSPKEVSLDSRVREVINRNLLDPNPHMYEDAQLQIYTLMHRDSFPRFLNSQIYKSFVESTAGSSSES

Molecule: B1
Kd [1]: 29.2 ± 4.4 nM

IC50 [2]: 46 ± 1.1 nM
B2: 6x-His-tagged Gαo, not biotinylated (free Gαo) (natural protein, UniProt P59215 1-354, looked up)
chain: MGCTLSAEERAALERSKAIEKNLKEDGISAAKDVKLLLLGAGESGKSTIVKQMKIIHEDGFSGEDVKQYKPVVYSNTIQSLAAIVRAMDTLGVEYGDKERKADSKMVCDVVSRMEDTEPFSAELLSAMMRLWGDSGIQECFNRSREYQLNDSAKYYLDSLDRIGAADYQPTEQDILRTRVKTTGIVETHFTFKNLHFRLFDVGGQRSERKKWIHCFEDVTAIIFCVALSGYDQVLHEDETTNRMHESLMLFDSICNNKFFIDTSIILFLNKKDLFGEKIKKSPLTICFPEYPGSNTYEDAAAYIQTQFESKNRSPNKEIYCHMTCATDTNNIQVVFDAVTDIIIANNLRGCGLY

Hill slope (Gαo–RGS17 interaction): −1.3
B3: free Gαo: un-biotinylated Gαo protein used as competitor in the AlphaScreen competition binding assay (protein)
chain: MGCTLSAEERAALERSKAIEKNLKEDGISAAKDVKLLLLGAGESGKSTIVKQMKIIHEDGFSGEDVKQYKPVVYSNTIQSLAAIVRAMDTLGVEYGDKERKADSKMVCDVVSRMEDTEPFSAELLSAMMRLWGDSGIQECFNRSREYQLNDSAKYYLDSLDRIGAADYQPTEQDILRTRVKTTGIVETHFTFKNLHFRLFDVGGQRSERKKWIHCFEDVTAIIFCVALSGYDQVLHEDETTNRMHESLMLFDSICNNKFFIDTSIILFLNKKDLFGEKIKKSPLTICFPEYPGSNTYEDAAAYIQTQFESKNRSPNKEIYCHMTCATDTNNIQVVFDAVTDIIIANNLRGCGLY
modifications: left off: His6, end not stated, state not stated
